Where no end group is shown, it is not given here. [ ]: non-standard residue; d: D form. TrpNAc = Trp with an acetic acid moiety; Hyp = O=C(O)[C@@H]1C[C@@H](O)CN1; NMeNle = CCCC[C@H](NC)C(=O)O; NMeA = CN[C@@H](C)C(=O)O; Dab = NCC[C@H](N)C(=O)O; Scc = not defined here
Molecular target: T1, PD-L1 of the commercial HTRF PD-1/PD-L1 interaction assay
T1 construct: PD-L1 as supplied in the Cisbio HTRF kit
Assay: AlphaScreen or HTRF; commercial HTRF PD-1/PD-L1 interaction assay (Cisbio, France); pAC65 varied; data fitted with Hill's model
Conditions: both partners purified

- IC50: 1.8 ± 0.16 nM
B1: pAC65 macrocyclic peptide (peptide)
chain: Y[NMeA]NP[Ala‑NH2]L[Hyp]W[Dab][TrpNAc][NMeNle][NMeNle]L[Scc]G-NH2
modifications: bridge (positions not given here); not fully specified (bridges); reading uncertain; also: macrocyclic ring, places not given here

From publication PMC10483858 (Molecular Cancer, 2023)
